Source: patent US20210018508A1 (PIERRE FABRE MEDICAMENT, published 2021)

Target: T1, recombinant human insulin receptor (human, UniProt P06213-2 28-944, limits assumed)
T1 construct: also called rhIR; human IR
Experiment: direct ELISA, rhIR coated at 1 µg/ml, hybridoma supernatant, anti-mouse IgG-HRP detection
Description: Further characterizations of the 816C12 antibody were then performed using hybridoma supernatant such as rhIGF-1R or rmIGF-1R or rhIR ELISA. In all direct ELISAs, proteins of interest were immobilized (1 μg/ml) to the bottom of each well. After saturation, hybridoma supernatants were added to the wells. After a 1-hour incubation period and a washing step, a solution of goat anti-mouse IgG—HRP labelled polyclonal antibody was used for detection, prior to the addition of the TMB substrate. The reaction was stopped with a 1M […] solution before reading the OD with a spectrophotometer at a 450 nm wavelength.

T1 sequence (P06213 other isoform, or with tags, fused parts or gaps limits assumed): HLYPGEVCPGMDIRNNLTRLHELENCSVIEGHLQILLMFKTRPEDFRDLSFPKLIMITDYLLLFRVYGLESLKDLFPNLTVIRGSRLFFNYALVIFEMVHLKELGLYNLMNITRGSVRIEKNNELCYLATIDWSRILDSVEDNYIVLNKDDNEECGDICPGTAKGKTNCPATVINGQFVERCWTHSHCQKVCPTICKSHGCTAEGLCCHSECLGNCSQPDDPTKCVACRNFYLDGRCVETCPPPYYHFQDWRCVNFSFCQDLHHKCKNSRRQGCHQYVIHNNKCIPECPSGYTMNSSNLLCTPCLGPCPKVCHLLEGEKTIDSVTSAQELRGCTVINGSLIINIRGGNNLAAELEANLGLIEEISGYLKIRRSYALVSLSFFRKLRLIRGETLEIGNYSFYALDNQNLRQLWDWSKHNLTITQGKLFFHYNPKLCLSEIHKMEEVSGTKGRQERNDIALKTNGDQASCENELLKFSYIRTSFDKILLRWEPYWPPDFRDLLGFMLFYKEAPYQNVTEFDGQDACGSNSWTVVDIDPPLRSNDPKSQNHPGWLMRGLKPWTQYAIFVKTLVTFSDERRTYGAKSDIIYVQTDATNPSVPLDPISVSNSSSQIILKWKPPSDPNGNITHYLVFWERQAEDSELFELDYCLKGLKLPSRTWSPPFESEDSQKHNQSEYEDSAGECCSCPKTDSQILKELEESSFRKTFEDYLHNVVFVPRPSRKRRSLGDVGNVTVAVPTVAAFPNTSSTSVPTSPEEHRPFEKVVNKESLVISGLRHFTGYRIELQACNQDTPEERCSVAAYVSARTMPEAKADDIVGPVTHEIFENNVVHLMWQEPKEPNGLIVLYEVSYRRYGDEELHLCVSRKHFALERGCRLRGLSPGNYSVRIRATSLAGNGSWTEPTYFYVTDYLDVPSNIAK

B1: 816C12 anti-IGF-1R monoclonal antibody (antibody, V domains shown)
VH: EVQLQQSGPELVKPGASVKMSCKASGHTFTSYVLHWMKRKPGQGLEWIGYINPHNDVTKYNENFKGKATLTSDKYSSTVYMEVSSLTSEDSAVYYCVSTAYYGNGRYFDVWGAGTTVTVSS
VL: DIQMTQTTSSLSASLGDRVTISCRASQDINNYLNWYQQKPDGTVKLLIYYTSRLHSGVSSRFSGSGSGTDYSLTISNLEQEDIATYFCQQGNTLPWTFGGGTKLEIK
notes: Murine monoclonal antibody from a Balb/C hybridoma; It was used as hybridoma supernatant in the ELISAs and at 5 ug/ml in IHC; also called I-4894; antibody secreted by hybridoma CNCM I-4894
Does B1 bind?
Result: no binding (tested: 5 µg/ml)
